Consider one sequence from article PMC12682024.

This assay has as its target dopamine 2 receptor (D2R) with SmBiT tag (UniProt P14416). Description: split reporter (BiFC, NanoBiT); NanoBiT in cells: SmBiT on D2R, LgBiT on Gβ; stimulation with dopamine; Gαo-free control = 0% interaction, WT Gαo = 100% interaction.
Sequence of UniProt P14416 (P14416 whole entry): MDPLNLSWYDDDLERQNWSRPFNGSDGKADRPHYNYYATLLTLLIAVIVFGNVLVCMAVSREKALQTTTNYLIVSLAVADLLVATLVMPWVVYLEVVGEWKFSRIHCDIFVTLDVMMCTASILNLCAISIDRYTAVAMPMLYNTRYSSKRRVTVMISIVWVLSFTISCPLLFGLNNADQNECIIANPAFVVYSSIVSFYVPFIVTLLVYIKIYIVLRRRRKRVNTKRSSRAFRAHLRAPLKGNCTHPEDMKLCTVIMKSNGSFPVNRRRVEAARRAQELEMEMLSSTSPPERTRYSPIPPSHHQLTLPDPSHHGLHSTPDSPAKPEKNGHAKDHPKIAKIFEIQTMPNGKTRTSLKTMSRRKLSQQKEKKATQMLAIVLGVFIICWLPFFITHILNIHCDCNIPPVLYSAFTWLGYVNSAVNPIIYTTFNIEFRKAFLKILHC

On to “G protein heterotrimer of N76K Gαo with LgBiT-tagged Gβ and Gγ (from UniProt P09471 1-354; P62873 1-340; P59768 1-71) (complex)”, for which the fold change of receptor-Gβγ interaction against WT Gαo was found to be 4 fold.
